The text below walks through data of patent publication US20070093418A1 (Amgen, published 2007).

The target in test [1] is T1, Negative Control Peptibody 4883 (Homo sapiens (Human), UniProt P0DOX5 223-449 = IgG part). Description: ELISA on conditioned medium with C-terminal hAng-2 (aa 255-495, C-terminal 6xHis); O.D. 370; pCDNA3 vector-control medium as blank. As to the method: (§1) The binding epitope of anti-Ang-2 antibodies and peptibodies was determined by their ability to bind the three versions of human hAng-2 by ELISA according to the following protocol: a high-binding 96-well assay plate was coated with 100 μl of conditioned media per well, and incubated at 37° C. for 1 hour. Conditioned media was aspirated, and the plate was blocked with 200 μl per well of 5% BSA in PBS at room temperature for 1 hour. The blocking solution was then aspirated. […] The wells were washed 4 times with 200 μl of 0.1% Tween in PBS. 100 μl per well of HRP-conjugated goat anti-human IgG or goat anti-mouse IgG were added, and incubated at room temperature for 45 minutes. The wells were then washed with 200 μl of 0.1% Tween in PBS 4 times. 100 μl per well of TMB substrate was then added. O.D. was read at 370 nm.
For orientation: In an ELISA, binding on a coated surface is turned into a signal by an enzyme label.

The target in test [2] is T2, 2xCon4 (C) 1K.
T2 construct: also called 2×Con4-C; 2×CON4-C (Pb5714)
The test can be described thus: KinExA solution competition, 30 pM 2xCON4-C; soluble huAng-2 varied, competing with huAng-2 on beads. An excerpt: (§2) Reacti-Gel 6× beads (Pierce, Rockford, Ill.) were pre-coated with huAng-2 and blocked with BSA. […] The amount of the bead-bound peptibody was quantified by fluorescent (Cy5) labeled goat anti-human-Fc antibody (Jackson Immuno Research, West Grove, Pa.). The binding signal is proportional to the concentration of free peptibody at equilibrium.
(§3) The dissociation equilibrium constant (KD) was obtained from nonlinear regression of the competition curves using a dual-curve one-site homogeneous binding model (KinE×™ software).
Background: A kinetic exclusion assay measures how much of one partner remains free in solution.

Test [3] deals with T2, 2xCon4 (C) 1K. Description: KinExA solution competition, 10 pM 2xCON4-C; soluble huAng-2 varied, competing with huAng-2 on beads.
Source text: as §2, §3

Test [4] addresses T1, Negative Control Peptibody 4883. The test can be described thus: ELISA on conditioned medium with N-terminal hAng-2 (aa 1-254, C-terminal 6xHis); O.D. 370; pCDNA3 vector-control medium as blank. On the procedure: as §1
The target of another test is T3, Con4 (C) (Homo sapiens (Human), UniProt P0DOX5 223-449 = IgG part).
T3 construct: also called TN8-Con4-C
The test is described as above. On the procedure:
as §1

Test [5] concerns the target T4, Tie-2-Fc (R&D Systems, catalog number 313-TI) (human, UniProt Q02763 23-748).
T4 construct: extracellular domain; bought; also called hTie2-Fc; Recombinant Human Tie-2-Fc Chimera; not shown: Fc of the bought chimera
The test is described as above. On the procedure:
as §1

B1: C-term of hAng2 (aa 255-495) (ligand)
chain: VNNLLTMMSTSNSKDPTVAKEEQISFRDCAEVFKSGHTTNGIYTLTFPNSTEEIKAYCDMEAGGGGWTIIQRREDGSVDFQRTWKEYKVGFGNPSGEYWLGNEFVSQLTNQQRYVLKIHLKDWEGNEAYSLYEHFYLSSEELNYRIHLKGLTGTAGKISSISQPGNDFSTKDGDNDKCICKCSQMLTGGWWFDACGPSNLNGMYYPQRQNTNKFNGIKWYYWKGSGYSLKATTMMIRPADFHHHHHH
notes: also called C-terminal (amino acids 255-495) human Ang-2
Turning to B1, the binding result in test [1] is “no binding (tested: 1 µg/ml (single concentration))”.

B2: human angiopoietin-2 (Ang-2) (ligand, UniProt O15123 19-496, looked up)
chain: YNNFRKSMDSIGKKQYQVQHGSCSYTFLLPEMDNCRSSSSPYVSNAVQRDAPLEYDDSVQRLQVLENIMENNTQWLMKLENYIQDNMKKEMVEIQQNAVQNQTAVMIEIGTNLLNQTAEQTRKLTDVEAQVLNQTTRLELQLLEHSLSTNKLEKQILDQTSEINKLQDKNSFLEKKVLAMEDKHIIQLQSIKEEKDQLQVLVSKQNSIIEELEKKIVTATVNNSVLQKQQHDLMETVNNLLTMMSTSNSAKDPTVAKEEQISFRDCAEVFKSGHTTNGIYTLTFPNSTEEIKAYCDMEAGGGGWTIIQRREDGSVDFQRTWKEYKVGFGNPSGEYWLGNEFVSQLTNQQRYVLKIHLKDWEGNEAYSLYEHFYLSSEELNYRIHLKGLTGTAGKISSISQPGNDFSTKDGDNDKCICKCSQMLTGGWWFDACGPSNLNGMYYPQRQNTNKFNGIKWYYWKGSGYSLKATTMMIRPADF
notes: Several preparations are used (R&D Systems protein, biotinylated R&D protein, 293T conditioned media); also called hAng-2; huAng-2
With B2, the “IC50 (read off the curve)” value with 2xCon4 (C) 1K [2] was approximately 40 pM; with 2xCon4 (C) 1K [3] it was approximately 10 pM.

B3: N-term hAng2 (aa 1-254) (ligand)
chain: YNNFRKSMDSIGKKQYQVQHGSCSYTFLLPEMDNCRSSSSPYVSNAVQRDAPLEYDDSVQRLQVLENIMENNTQWLMKLENYIQDNMKKEMVEIQQNAVQNQTAVMIEIGTNLLNQTAEQTRKLTDVEAQVLNQTTRLELQLLEHSLSTNKLEKQILDQTSEINKLQDKNSFLEKKVLAMEDKHIIQLQSIKEEKDQLQVLVSKQNSIIEELEKKIVTATVNNSVLQKQQHDLMETHHHHHH
notes: also called N-terminal (amino acids 1-254) human Ang-2
B3: the binding result (in test [4]; with Con4 (C); in test [5]) was “no binding (tested: 1 µg/ml (single concentration))” in each case.
